Reference: US20150031612A1 (YALE UNIVERSITY, published 2015)
Bridge positions count the residues as written; N and C are the ends. Square brackets hold non-standard residues; d marks the D form. Ends that are not written are not given here. S5 = C=CCCC[C@](C)(N)C(=O)O

Target: T1, native, full length, EGFR (wtEGFR) (UniProt P00533 25-1210, limits assumed)
T1 construct: whole, on cells; The pull-down used cell lysates, not intact cells; the residue numbers used (L858R, T790M) fit human EGFR; also called wild type EGFR; Epidermal Growth Factor Receptor
Test: streptavidin-bead pull-down from lysates of wtEGFR-transfected CHO-K1 cells, anti-EGFR immunoblot

B1: ^BJM-WT (biotinylated analog of JM-WT) (peptide)
peptide: VRKRTLRRLLQERELVE
modifications: also: biotinylated, site not given here
binding result: no binding (tested: 25 µM)

B2: ^BT1^S (biotinylated analog of T1^S) (peptide)
peptide: VRKRT[S5]RRL[S5]QERELVE
modifications: staple 6-10; also: biotinylated, site not given here
notes: Stapled form of T1, biotinylated for the pull-down
binding result: no binding (tested: 25 µM)
